According to publication PMC13562413, “FoxO transcription factors coordinate the urea cycle and gluconeogenesis by controlling Ass1”:

Target: GST-FoxO1-DBD (Mus musculus, UniProt Q9R1E0 157-268)
Test: EMSA; 10 mM HEPES pH 7.8, 50 mM KCl, 1 mM EDTA, 5 mM MgCl2, 10% glycerol, 5 mM DTT, 0.4 ug/mL poly(dI-dC), 30 min on ice; 4.6% PAGE in TBE
Conditions: protein: recombinant; tags: N-terminal GST (pGEX-4T1); label: 32P (alpha-32P dCTP, Klenow fill-in); blunt after fill-in of 5' overhangs

Sequence of GST-FoxO1-DBD (Q9R1E0 157-268): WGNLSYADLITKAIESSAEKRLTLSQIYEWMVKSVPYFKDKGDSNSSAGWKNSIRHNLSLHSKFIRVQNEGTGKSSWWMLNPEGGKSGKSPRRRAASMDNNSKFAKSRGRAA

B1: Ass1 FoxO BS1 mut (dsDNA)
DNA 1: GTGTACCCAAGGACACATCTACTTTCTTTCTGATTTTGGATCCTTTGTTGGGTG
DNA 2: CACCCAACAAAGGATCCAAAATCAGAAAGAAAGTAGATGTGTCCTTGGGTACAC
binding result: no binding
